In patent US20190100588A1 (VISTERRA, published 2019):

Columns and labels:
Peptide 2a [1] = molecular target: T1, Peptide 2a (human); test: peptide binding ELISA
T1 construct: also called Pep2a
T1 peptide: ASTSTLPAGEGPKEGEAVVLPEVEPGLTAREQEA
Method: (§1) As above, the monoclonal antibodies were tested for binding to a series of CD138 peptides in four-fold serial dilutions starting at 1 μg/mL. […] HRP-conjugated anti-human IgG-Fc antibody (1:5000 dilution) was used for detection. Antibody B-B4 was also tested as a reference. […] Reference antibody B-B4 only bound to Peptide 2a.

mutated CD138 Clone 5 = molecular target: T2, mutated CD138 Clone 5 (human, UniProt P18827 23-310); test: staining of Expi293 cells expressing the CD138 variant
T2 construct: Leu107, Pro108, Glu109 mutated to Ala; Expressed on Expi293 cells
T2 chain: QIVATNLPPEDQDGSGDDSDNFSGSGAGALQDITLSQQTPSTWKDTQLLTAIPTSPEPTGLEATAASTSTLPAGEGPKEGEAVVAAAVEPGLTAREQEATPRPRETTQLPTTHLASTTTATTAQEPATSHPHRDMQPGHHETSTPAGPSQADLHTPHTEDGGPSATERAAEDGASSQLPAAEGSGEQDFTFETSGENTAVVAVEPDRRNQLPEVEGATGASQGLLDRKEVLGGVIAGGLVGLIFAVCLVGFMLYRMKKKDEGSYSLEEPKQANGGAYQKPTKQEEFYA

mutated CD138 Clone 1 = molecular target: T3, mutated CD138 Clone 1 (human, UniProt P18827 23-310); test: as above
T3 construct: Leu107, Pro108, Glu109 of the original site mutated to Ala; Expressed on Expi293 cells
T3 chain: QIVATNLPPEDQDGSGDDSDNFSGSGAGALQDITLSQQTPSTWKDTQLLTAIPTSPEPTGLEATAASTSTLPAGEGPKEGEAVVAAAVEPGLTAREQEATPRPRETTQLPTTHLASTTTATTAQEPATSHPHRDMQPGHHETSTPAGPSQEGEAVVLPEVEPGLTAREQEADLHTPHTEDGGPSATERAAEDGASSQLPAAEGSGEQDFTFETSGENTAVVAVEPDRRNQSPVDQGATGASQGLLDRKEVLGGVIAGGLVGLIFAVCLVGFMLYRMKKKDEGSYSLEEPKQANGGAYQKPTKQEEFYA

mutated CD138 Clone 4 = molecular target: T4, mutated CD138 Clone 4 (human, UniProt P18827 23-310); test: as above
T4 construct: Leu107, Pro108, Glu109 mutated to Ala; Expressed on Expi293 cells
T4 chain: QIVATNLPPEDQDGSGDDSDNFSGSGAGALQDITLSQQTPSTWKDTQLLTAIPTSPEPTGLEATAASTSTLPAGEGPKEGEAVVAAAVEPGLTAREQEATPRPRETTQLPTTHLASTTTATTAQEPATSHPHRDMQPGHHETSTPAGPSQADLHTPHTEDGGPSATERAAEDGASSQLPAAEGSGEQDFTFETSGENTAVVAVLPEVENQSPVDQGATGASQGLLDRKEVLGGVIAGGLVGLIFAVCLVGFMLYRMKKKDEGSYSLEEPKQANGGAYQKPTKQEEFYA

mutated CD138 Clone 2 = molecular target: T5, mutated CD138 Clone 2 (human, UniProt P18827 23-310); test: as above
T5 construct: Leu107, Pro108, Glu109 mutated to Ala; Expressed on Expi293 cells
T5 chain: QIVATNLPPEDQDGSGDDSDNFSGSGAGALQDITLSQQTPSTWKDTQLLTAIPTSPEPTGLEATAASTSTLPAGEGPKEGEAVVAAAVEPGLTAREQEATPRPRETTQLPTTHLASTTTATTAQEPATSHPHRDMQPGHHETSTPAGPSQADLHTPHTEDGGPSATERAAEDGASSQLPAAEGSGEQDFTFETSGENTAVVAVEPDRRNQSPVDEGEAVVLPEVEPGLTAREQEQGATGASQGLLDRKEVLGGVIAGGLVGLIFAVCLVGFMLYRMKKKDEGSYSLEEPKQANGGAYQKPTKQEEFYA

Peptide 6B [2] = molecular target: T6, Peptide 6B (human, biotin at the amino terminus); test: bio-layer interferometry, biotinylated peptide
T6 construct: also called Pep6b
T6 peptide: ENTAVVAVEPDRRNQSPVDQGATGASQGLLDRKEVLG

Pep5 = molecular target: T7, Pep5 (human); test: peptide binding ELISA
T7 construct: also called Peptide 5
T7 peptide: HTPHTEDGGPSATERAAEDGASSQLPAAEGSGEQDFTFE
Method: as §1

[3] = molecular target: T8, recombinant CD138 extracellular domain (soluble CD138) (human, UniProt P18827 23-250); test: ELISA, recombinant CD138 extracellular domain
T8 construct: also called soluble CD138 extracellular domain; biotinylated CD138
T8 sequence: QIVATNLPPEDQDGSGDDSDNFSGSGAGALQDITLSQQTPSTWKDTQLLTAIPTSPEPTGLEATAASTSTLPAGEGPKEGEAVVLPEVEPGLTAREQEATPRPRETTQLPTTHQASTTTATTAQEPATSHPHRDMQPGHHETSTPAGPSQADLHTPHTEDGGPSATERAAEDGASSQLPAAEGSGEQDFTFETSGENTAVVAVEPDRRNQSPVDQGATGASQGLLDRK
Method: (§2) Antibody B-B4 was included as a reference. Briefly, the monoclonal antibodies were tested for binding to recombinant CD138 extracellular domain consisting of amino acids 23-254 of human CD138, in four-fold serial dilutions starting at 1 μg/mL. HRP-conjugated anti-human IgG-Fc antibody (1:5000 dilution) was used for detection.

Pep6 [4] = molecular target: T9, Pep6 (human); test: peptide binding ELISA
T9 construct: also called Peptide 6; Peptide-6
T9 peptide: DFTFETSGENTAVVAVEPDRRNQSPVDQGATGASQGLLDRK
Method: as §1

[5] = molecular target: T10, cell surface CD138 (human CD138) (human, UniProt P18827 23-310); test: flow cytometry, U266 cells
T10 construct: whole, on cells; also called membrane CD138
T10 sequence (looked up): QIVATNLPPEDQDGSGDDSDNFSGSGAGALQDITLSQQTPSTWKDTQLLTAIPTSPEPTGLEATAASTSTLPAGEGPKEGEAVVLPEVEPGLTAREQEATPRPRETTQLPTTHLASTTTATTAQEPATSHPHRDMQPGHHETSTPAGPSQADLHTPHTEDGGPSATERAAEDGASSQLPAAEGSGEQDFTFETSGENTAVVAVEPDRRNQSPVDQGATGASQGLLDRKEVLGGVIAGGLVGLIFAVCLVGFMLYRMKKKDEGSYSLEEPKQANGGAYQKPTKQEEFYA
Method: (§3) Binding of anti-CD138 antibodies to CD138 was tested by flow cytometry binding assay. Multiple myeloma cell lines RPMI 8226 (ATCC) and U266 (ATCC) were grown in RPMI1640 with 10% FBS. On the day of experiment, 0.25×10⁶ cells were washed with FACS buffer (PBS+0.5% BSA) and incubated with dilution series of anti-CD138 antibodies (starting 10 ug/ml) or hybridoma supernatants (starting with undiluted supernatant) for 30 min at 4° C. followed by incubation with goat-anti-human/mouse conjugated APC antibodies (BioLegend) for 30 min at 4° C. Fluorescence was detected using flow cytometer.
(§4) The afucosylated antibody variants were then tested for capacity to induce ADCC, as described above.

Peptide 2C = molecular target: T11, Peptide 2C (human, biotin at the amino terminus); test: bio-layer interferometry, biotinylated peptide
T11 construct: also called Pep2c
T11 peptide: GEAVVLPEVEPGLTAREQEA

Peptide 6E = molecular target: T12, Peptide 6E (human, biotin at the amino terminus); test: bio-layer interferometry, biotinylated peptide
T12 construct: also called Pep6e
T12 peptide: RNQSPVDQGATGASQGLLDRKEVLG

[6] = molecular target: T8, recombinant CD138 extracellular domain …; test: ELISA, soluble CD138
Method: as §2

Peptide 6B [7] = molecular target: T6, Peptide 6B; test: ELISA with captured antibody (FIG. 21); also bio-layer interferometry (FIG. 22A)
Method: Briefly, biotinylated peptides (Peptides 2A, 2D, 6B, and 6F; sequences shown in FIG. 22C) were used at 50 nM and captured on streptavidin capture biosensors. Antibodies were then run over the captured peptides at concentrations of 25 nM to 6.25 nM.

Pep6 [8] = molecular target: T9, Pep6; test: ELISA (FIG. 18C)
[9] = molecular target: T8, recombinant CD138 extracellular domain …; test: ELISA (FIG. 18A)
Peptide 2a [10] = molecular target: T1, Peptide 2a; test: ELISA (FIG. 18B)
[11] = molecular target: T10, cell surface CD138 (human CD138); test: flow cytometry, U266 cells, afucosylated antibody
Method: as §3, §4

B1: antibody B-B4 (antibody, V domains shown)
VH: QVQLQQSGSELMMPGASVKISCKATGYTFSNYWIEWVKQRPGHGLEWIGEILPGTGRTIYNEKFKGKATFTADISSNTVQMQLSSLTSEDSAVYYCARRDYYGNFYYAMDYWGQGTSVTVSS
VL: DIQMTQSTSSLSASLGDRVTISCSASQGINNYLNWYQQKPDGTVELLIYYTSTLQSGVPSRFSGSGSGTDYSLTISNLEPEDIGTYYCQQYSKLPRTFGGGTKLEIK
notes: detected with anti-human IgG-Fc; afucosylated and biotinylated versions also used; also called B-B4-IgG1; MAb B-B4
Peptide 2a [1]
  binding result: binds
Mutated CD138 Clone 5
  binding result: binds
Mutated CD138 Clone 1
  binding result: binds
Mutated CD138 Clone 4
  binding result: binds
Mutated CD138 Clone 2
  binding result: binds
Peptide 6B [2]
  binding result: no binding

B2: antibody CD002 (antibody, V domains shown)
VH: QVQLQQPGAELVKPGASVKLSCKASGFSFITYWMNWIKQRPGRGLEWIGRIHPSDSATQYNQKFKTKATLTVDKSSSTAYIQLSSLTSEDSAVYYCARSTEGAHWGQGTLVTVSA
VL: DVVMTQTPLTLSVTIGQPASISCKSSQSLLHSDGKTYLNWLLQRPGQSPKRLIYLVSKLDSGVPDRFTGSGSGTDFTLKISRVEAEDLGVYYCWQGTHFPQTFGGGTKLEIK
Pep5
  binding result: binds
[3]
  binding result: binds

B3: antibody 1610 (antibody, V domains shown)
VH: QVQLHQPGTSLVKPGASVKLSCKASGYNFSSYYMHWVKQRPGQGLEWIGTIHPSDSTTNCNQKFKGKATLTVDKSSRTAYMQLNSLTFEDSAVYYCANFVYWGQGTSVTVSS
VL: DIVITQDELSNPVTSGDSVSISCRSSKSLLYKDGKTYLNWFLQRPGQSPQLLIYVVSTRASGVSDRFSGSGSGTDFTLEISRVKAEDVGVYYCQQLVEYPYTFGGGTKLEIK
notes: Chimeric monoclonal antibody, murine variable regions and human IgG1
Pep6 [4]
  binding result: binds
Peptide 2a [1]
  binding result: binds
[5]
  EC50: 0.0019 µg/mL
Peptide 6B [2]
  binding result: binds
Peptide 2C
  binding result: binds
Peptide 6E
  binding result: no binding
[6]
  EC50: 0.394 µg/mL

B4: antibody 2810 (antibody, V domains shown)
VH: QVQLHQPGTSLVKPGASVKLSCKASGYSFSSYYMHWVKQRPGQGLEWIGTIHPSDSTTNYNQKFKGKATLTVDKSSRTAYMQLNSLTFEDSAVYYCANFVYWGQGTSVTVSS
VL: DIVITQDELSNPVTSGDSVSISCRSSKSLLYKDGKTYLNWFLQRPGQSPQLLIYVVSTRASGVSDRFSGSGSGTDFTLEISRVKAEDVGVYYCQQLVEYPYTFGGGTKLEIK
Peptide 6B [7]
  binding result: binds
Pep6 [8]
  binding result: binds
[9]
  binding result: binds
Peptide 2a [10]
  binding result: binds
[11]
  binding result: binds
